The nanobody polyreactivity screen of Harvey et al. (2022)

Assay: yeast display, Sf9 membrane polyspecificity reagent, FACS + sequencing; frameworks hold sequencing errors
Procedure, shortened: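 Nanobodies from a synthetic yeast display library (Saccharomyces cerevisiae BJ5465), induced 36–48 hours with galactose, were stained 1 hour at 4 °C with 10% biotinylated, detergent-solubilized Sf9 membrane reagent, enriched on streptavidin microbeads, then FACS-sorted. Anti-HA (expression) and streptavidin (reagent binding) fluorescence set low and high (top ~1%) gates. Polyreactivity labels come from the gate of origin. Genes were colony-PCR amplified, MiSeq 2 × 250 sequenced and filtered by CDR length.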

| Sequence | polyreactivity (PSR sort gate) |
| --- | --- |
| QVQLVESGGGLVQAGGSLRFSCAASRSIFFWYTMGWYRQAPGKYRELVATITGSGSSTTYADSVKGRFTISRDNAKNTVYLQMNSLKPEDTAVYYCAAADIIDHSFPYDYWGQGTQVTVSS | low polyreactivity |
| QVQLVESGGGLVQAGGSLRFSCAATGSIFVVNAMGWYRQAPGKERELVASITWSGDNTYYADSVKGRFTISRDNAKNTVYLQMNSLKPEDTAVYYCAATIWIAYRGWYSDYNYWGQGTQVTVSS | low polyreactivity |
| QVQLVESGGGLVQAGGSLRFSCAAYGSISRYYAMGWYRLAPGKERELVAAISSNGGSTYYADSVKGRFTISRDNAKNTVYLQMNSLKPEDTAVDDCAAESDYFRYDYWGQGTQVTVSS | high polyreactivity |
| QVQLVESGGGLVQAGGSLRFSCPASGSIFPAYARGWYRQAPGKERELVAAITRGGSTDYADSVKGRFTISRDNAKNTVYLQMNSLKPEDTAVYYCAKRGYYYYHYVSGKPEDYWGQGTQVTVSS | low polyreactivity |
| QVQLVESGGGLVQAGGSLRFSSPASGLTFGTYAMGWYRQAPGKERELVAAISTSGVRTYYADSVKGRFTISRDIAKNTVYLQMNSLKPEDTAVYYCAARYNRAYSRDYWGQGSQVTVSS | high polyreactivity |
| QVQLVESGGGLVQAGGSLRIICAASGSIFVEYAMGWYRQAPGKERELVAAITYRGGSTYYADSVKGRFTISRDNAENTVYLQMNSLKPEDTAVYYCAAAVYYWGTSAYEYWGQGTQVTVSS | low polyreactivity |
| QVQLVESGGGLVQAGGSLRIRCAASGRIFDTYAMGWYRQAPGKEREFVATISWDSASTYYADSVKGRFTISRDNAKNTVYLQMNSLKPEDTAVDYCAAGGSSSWAFNYWGQGTQLTVSS | low polyreactivity |
| QVQLVESGGGLVQAGGSLRISCAASASIFPGYAMGWYRQAPGKERELVAAISWSGGRTYYADSVKGRFTISRDNSKNTFYLQMNSLKPEDTAVYYCAARKYHLRSAYDYWGQGTQVTVSS | low polyreactivity |
| QVQLVESGGGLVQAGGSLRISCAASGFIFRYNAMGWYRQAPGKERELVAAINSGDSTNYADSVKGRFTISRDNAKNTVYLQMNSLKPEDTAVYYYWGQGTQVTVSS | low polyreactivity |
| QVQLVESGGGLVQAGGSLRISCAASGFSCRQYAMGWYRQAPGKERELVAAISSSGGRTYYADSVKGRFTISRDNAKNTVYLQMNSLKPEDTAVYYCIARAWLRVEYGEGYWGQGTQVTVSS | high polyreactivity |
| QVQLVESGGGLVQAGGSLRISCAASGFTFPIYAMGWYRKAPGKEREFVAAITASGDNTYYADSVKGRFTISRDNAKNTVYLQMNSLKPEDSAVYYCAADWFVDWWEYDYWGQGTQVTVSS | low polyreactivity |
| QVQLVESGGGLVQAGGSLRISCAASGFTFVAYAMGWYRKAPGKERELVAAISRRGGTTYYADSVKGRFTISRDNAKNTVYLQMNSLKPEDTAVYYCNARGFPGKFGYWGQGTQVTVSS | high polyreactivity |
| QVQLVESGGGLVQAGGSLRISCAASGFTFYRYAMGWSIPAPGKERELVAAISSHGDSTYYADSVKGRFTISRDNAKNTVYLQMNSLKPEDTAVYYCNVETLYGYFLHFYLRYYHWGQGTQVTVSS | high polyreactivity |
| QVQLVESGGGLVQAGGSLRISCAASGFTFYSNDMGWYRQAPGKERELVAAISYSGGSTYYADSVKGRFTISRDNAKNTVYLQMNSLKPEDTAVYYCAAGGLQQGDYWGQGTQVTVSS | low polyreactivity |
| QVQLVESGGGLVQAGGSLRISCAASGGNFDSNAMGWTRPAPGKVRELVAAISDSGGSTYYADSVKGRFTISRDNAYNTVYLQMNSLKPEDTAVYYCAADSDYHFVNYRFGMDYWGQGTQVTVSS | low polyreactivity |
| QVQLVESGGGLVQAGGSLRISCAASGIFPAYDMGWYRQAPGKERELVASISSDGSTYYADSVKGRFTISRDNAKNTVYLQMNSLKPEDTAVYYCNDVAIEPYYYVVYDIFDYWGQGTQVTVSS | low polyreactivity |
